Source: PMC5352144, “Deacetylation of sialic acid by esterases potentiates pneumococcal neuraminidase activity for mucin utilization, colonization and virulence” (PLoS Pathogens, 2017)

Test system: CC(=O)Oc1ccc([N+](=O)[O-])cc1
Assay: purified protein
Conditions: pH 7.5

Axe (Streptococcus pneumoniae D39)
Km: 4.4 ± 0.58 mM
